Assay results: CN112759647A

Tests used:
[1] = biological target: 人PD-L1 on 293T-h-PDL1 cells (HEK293 stably expressing PD-L1) (human) (UniProt Q9NZQ7); experiment: FACS, hybridoma supernatant on 293T-h-PDL1 cells
[2] = biological target: 人PD-L1胞外区与人IgG1-FC的融合蛋白 (human) (UniProt Q9NZQ7); experiment: FACS blocking: supernatant premixed with 500 ng PD-L1-hFc; competitor PD-1 on 293T-h-PD1 cells
[3] = biological target: 人PD-L1 on 293T-h-PDL1 cells (HEK293 stably expressing PD-L1) (human) (UniProt Q9NZQ7); experiment: FACS, antibody on 293T-h-PDL1 cells

| Binder | EC50 [1] [µg/mL] | IC50 [2] [µg/mL] | EC50 [3] [µg/mL] |
| --- | --- | --- | --- |
| 鼠抗体8A2 (antibody, from another filing, V domains shown) VH: QVQLKQSGPGLVAPSQSLSITCTVSGFSLTGYGVNWVRQPPGKGLEWLGKIWGDGITDYNSALKSRLSISKDNSKSQVFLKMNSLQTDDTARYYCARDVMDYWGQGTSVTVSS VL: QIVLTQSPAIMSASPGEKVTMTCSASSSISYMHWYQQKPGTSPKRWIYDTSKLASGVPARFSGSESGTSYSLTISSMEAEDAATYYCHHRSPYPTFGAGTKLELK | 0.336 | 5.17 | – |
| 鼠抗体13C9 (antibody, from another filing, V domains shown) VH: QVQLKQSGAGLVKPGASVKLSCKASGYIFTEYIIHWVKQRSGQGLEWIGWFYPGSDNIKYNEKFKDKATLTADKSSSTVYMELSRLTSEDSAVYFCARHETGYFFDYWGQGTTLTVSS VL: DIVITQSPAIMSASPGEKVTMTCSASSSVSKMNWYQQKSGTSPKRWIYDTSKLASGVPSRFSGSGSGTSYSLTISSMEAEDAATYYCQQWSSNPLTFGSGTKLELKR | 0.44 | 1.95 | 0.49 |

Now from value to binder:

| EC50 [1] [µg/mL] | IC50 [2] [µg/mL] | EC50 [3] [µg/mL] | Binder |
| --- | --- | --- | --- |
| 0.39 | 2.31 | – | 鼠抗体28B1 (antibody, from another filing, V domains shown) VH: QVQLKQSGAELVKPGASVMLSCTASAFNIDDTYIHWVKQRPEQGLEWIGRIDPANGNTDYDPECQGKATITTDMSSNTAYLQLSSLTSEDTAVYFCARGLRLPGLVYWGRGTLVTVSA VL: DIQMTQTTSSLSASLGDRVTISCRASQDISNYLNWYQQKPDGTVKLLIYYTSILYSGVPSRFSGSGSGTDYSLTINTLEEEDIATYFCQQGNTLPWTFGGGTKLEIIR |
| 0.517 | 4.31 | – | 鼠抗体22B10 (antibody, from another filing, V domains shown) VH: QVQLKQSGAELVKPGASVELSCTASGFNIEDTYLHWVNQRPEQGLEWIGRIDPANGNTYYDPKFQGKATITTDTSSNTAYLQLSRLTSEDTAVYYCARGLRLPGFPYWGQGTLVTVSA VL: DIQMTQTPSSLSASLGDRVTISCRASQDISNYLSWYQQKPDGTVKLLIYYTSILHSGVPSRFSGSGSGTDYSLAISNLDQEDIATYFCQQGNTLPWTFGGGTKLEIKR |
| 1.45 | 4 | – | 鼠抗体15G10 (antibody, from another filing, V domains shown) VH: QVQLKQSGPELVKPGASVKTSCKASGYTFTNYVVHWVKQNPGQGLEWIGYVNPNNDGTIFNEKFKDKAILTSDKSSSTAYMELSSLTSEDSAVYYCARSPFAHWGQGTLVTVSA VL: QIVLTQSPASLTVSLGQRATISCSASESVDFYGTSLMQWFQQKPGQPPKLLVYTASNVDSEVPARFSGSGSGTDFSLNIHPVEEDDIAMYFCHQTRKVPYTFGGGTKLEIK |
